Assay results reported in the supplement of paper PMC10065799, “High-throughput profiling of sequence recognition by tyrosine kinases and SH2 domains using bacterial peptide display” (eLife, 2023).

biological target: EPHB2 (UniProt P29323); experiment: phosphorylation enrichment, bacterial display (enrichment ratio); higher = better substrate or ligand; peptides without Tyr show the background
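Further: 11-residue human phosphosite peptides and single-mutation variants displayed on the E. coli surface, counted by deep sequencing, each peptide's frequency after selection divided by its frequency in the unselected input library; frequency after pTyr selection over input frequency; kinase dosed for 20-30% of maximal phosphorylation in three min.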

Sequence of EPHB2 (P29323 whole entry, looked up): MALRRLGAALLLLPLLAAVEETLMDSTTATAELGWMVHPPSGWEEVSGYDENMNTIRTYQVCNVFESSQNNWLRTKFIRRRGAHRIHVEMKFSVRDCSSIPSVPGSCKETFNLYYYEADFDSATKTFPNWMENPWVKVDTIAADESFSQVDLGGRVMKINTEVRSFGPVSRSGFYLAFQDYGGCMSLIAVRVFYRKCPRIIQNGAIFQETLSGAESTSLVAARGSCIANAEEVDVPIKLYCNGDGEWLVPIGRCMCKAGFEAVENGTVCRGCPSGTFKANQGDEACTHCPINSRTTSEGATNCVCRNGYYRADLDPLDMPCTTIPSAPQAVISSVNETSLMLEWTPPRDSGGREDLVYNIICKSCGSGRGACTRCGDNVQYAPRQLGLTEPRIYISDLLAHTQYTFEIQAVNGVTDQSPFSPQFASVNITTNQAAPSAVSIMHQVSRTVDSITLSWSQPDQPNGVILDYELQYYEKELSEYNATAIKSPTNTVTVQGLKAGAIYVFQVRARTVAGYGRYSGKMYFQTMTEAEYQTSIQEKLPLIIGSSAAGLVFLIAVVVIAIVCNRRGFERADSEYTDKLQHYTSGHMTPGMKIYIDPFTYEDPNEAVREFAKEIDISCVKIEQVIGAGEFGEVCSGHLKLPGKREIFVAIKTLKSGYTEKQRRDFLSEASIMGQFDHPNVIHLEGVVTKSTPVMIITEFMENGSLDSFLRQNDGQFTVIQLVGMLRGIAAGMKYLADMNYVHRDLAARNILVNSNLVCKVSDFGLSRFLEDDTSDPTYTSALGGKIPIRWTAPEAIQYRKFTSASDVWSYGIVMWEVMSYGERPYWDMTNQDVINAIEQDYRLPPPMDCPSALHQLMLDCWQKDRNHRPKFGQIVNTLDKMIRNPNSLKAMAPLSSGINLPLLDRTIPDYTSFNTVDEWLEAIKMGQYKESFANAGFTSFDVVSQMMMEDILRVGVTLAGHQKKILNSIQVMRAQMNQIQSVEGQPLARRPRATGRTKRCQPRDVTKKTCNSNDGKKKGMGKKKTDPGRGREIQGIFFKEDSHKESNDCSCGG

| Sequence | phosphorylation enrichment |
| --- | --- |
| AIFEGYALPHA [ACTC1_Y171_P166A_YF] | 0.401 |
| EVEPRYVVLYD [ERCC4_Y577] | 3.44 |
| RHCSGYVLIAM [EFR3A_Y73_R70C] | 0.403 |
| SRGSSYSSIPK [FLNC_Y2625] | 0.322 |
| CTHDLYMFMRE [FGFR3_Y724_I726F] | 1.04 |
| NIEPVYLNMLL [ATR_Y317] | 5.01 |
| RIGRKYKKVRF [F8_Y442] | 0.511 |
| KTGNIYRTEFG [MRPL3_Y265_M261T_YF] | 0.377 |
| KSVSQYLEMDK [CAGE1_Y438] | 0.406 |
| YETDYYQKGGK [INSR_Y1190_R1191Q] | 0.615 |
| FADIAYNYRHR [PAH_Y166_G171R] | 0.44 |
| EASGIYVKSVI [PATJ_Y396_I400V] | 0.465 |
| YYHCTYKQRMI [CLEC12A_Y242_K244Q] | 0.527 |
| VFSIDYFRVGG [NTRK2_Y706_T704I_YF] | 0.563 |
| PGGKIYISPLK [RB1_Y805_N803K] | 0.763 |
| LGGSPYPGVPV [FGFR1_Y701] | 0.615 |
| CTTIHYNNMCN [TP53_Y234_Y236N] | 0.479 |
| GESLTYASTTF [C1orf162_Y120] | 0.644 |
| ENFSEYQEISV [HEMGN_Y150_A154S] | 1.46 |
| SSYSRYIMMPN [LEF1_Y114_G113R] | 1.84 |
| GKSDPYHATSG [GJA1_Y247] | 0.349 |
| NVFGNYNNQSS [HNRNPA1_Y318_D314V] | 0.467 |
| VKFLGYPPPEI [KDR_Y357_A352V_YF] | 0.618 |
| GFVEDYRPPFY [ACVRL1_Y421_I417F] | 0.491 |
| RRRLIYRCQVG [NR2E3_Y81] | 0.983 |
| FVHDNYVIWRT [CPS1_Y1450_R1453W] | 7.37 |
| STLEVYRCHPP [IL21R_Y317_S318R] | 0.675 |
| MRTMGYMPREM [CABP5_Y62_T65R] | 0.374 |

biological target: FGFR1 (UniProt P11362); experiment: as above
Sequence (P11362 whole entry, looked up): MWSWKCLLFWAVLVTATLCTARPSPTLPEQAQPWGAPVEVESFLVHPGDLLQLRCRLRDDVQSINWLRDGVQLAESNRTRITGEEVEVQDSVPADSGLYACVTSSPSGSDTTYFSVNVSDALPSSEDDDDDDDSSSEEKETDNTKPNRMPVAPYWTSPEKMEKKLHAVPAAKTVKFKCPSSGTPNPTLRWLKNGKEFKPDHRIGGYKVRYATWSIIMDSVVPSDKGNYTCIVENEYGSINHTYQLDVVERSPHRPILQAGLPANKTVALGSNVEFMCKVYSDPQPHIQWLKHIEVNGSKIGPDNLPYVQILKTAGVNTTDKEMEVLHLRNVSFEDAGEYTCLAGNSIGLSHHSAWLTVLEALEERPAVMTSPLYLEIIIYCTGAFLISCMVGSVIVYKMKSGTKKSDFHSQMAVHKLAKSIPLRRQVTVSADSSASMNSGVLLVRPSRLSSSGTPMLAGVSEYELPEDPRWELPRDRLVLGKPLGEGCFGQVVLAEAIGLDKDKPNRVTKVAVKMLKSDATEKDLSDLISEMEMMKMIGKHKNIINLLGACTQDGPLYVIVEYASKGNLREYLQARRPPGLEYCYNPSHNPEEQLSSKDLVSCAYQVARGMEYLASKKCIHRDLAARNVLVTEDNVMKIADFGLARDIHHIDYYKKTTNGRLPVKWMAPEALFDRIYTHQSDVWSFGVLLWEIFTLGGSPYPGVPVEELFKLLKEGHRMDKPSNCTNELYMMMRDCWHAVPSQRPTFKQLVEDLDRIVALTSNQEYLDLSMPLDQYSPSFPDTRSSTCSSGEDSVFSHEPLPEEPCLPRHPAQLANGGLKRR

| Sequence | phosphorylation enrichment |
| --- | --- |
| AIFEGYALPHA [ACTC1_Y171_P166A_YF] | 0.549 |
| EVEPRYVVLYD [ERCC4_Y577] | 1.36 |
| RHCSGYVLIAM [EFR3A_Y73_R70C] | 0.596 |
| SRGSSYSSIPK [FLNC_Y2625] | 0.479 |
| CTHDLYMFMRE [FGFR3_Y724_I726F] | 1.76 |
| NIEPVYLNMLL [ATR_Y317] | 8.65 |
| RIGRKYKKVRF [F8_Y442] | 0.352 |
| KTGNIYRTEFG [MRPL3_Y265_M261T_YF] | 0.517 |
| KSVSQYLEMDK [CAGE1_Y438] | 0.46 |
| YETDYYQKGGK [INSR_Y1190_R1191Q] | 0.983 |
| FADIAYNYRHR [PAH_Y166_G171R] | 0.427 |
| EASGIYVKSVI [PATJ_Y396_I400V] | 0.47 |
| YYHCTYKQRMI [CLEC12A_Y242_K244Q] | 9.07 |
| VFSIDYFRVGG [NTRK2_Y706_T704I_YF] | 4.54 |
| PGGKIYISPLK [RB1_Y805_N803K] | 0.45 |
| LGGSPYPGVPV [FGFR1_Y701] | 0.514 |
| CTTIHYNNMCN [TP53_Y234_Y236N] | 0.423 |
| GESLTYASTTF [C1orf162_Y120] | 0.401 |
| ENFSEYQEISV [HEMGN_Y150_A154S] | 1.89 |
| SSYSRYIMMPN [LEF1_Y114_G113R] | 1.79 |
| GKSDPYHATSG [GJA1_Y247] | 0.346 |
| NVFGNYNNQSS [HNRNPA1_Y318_D314V] | 0.399 |
| VKFLGYPPPEI [KDR_Y357_A352V_YF] | 0.398 |
| GFVEDYRPPFY [ACVRL1_Y421_I417F] | 0.56 |
| RRRLIYRCQVG [NR2E3_Y81] | 0.854 |
| FVHDNYVIWRT [CPS1_Y1450_R1453W] | 2.79 |
| STLEVYRCHPP [IL21R_Y317_S318R] | 0.55 |
| MRTMGYMPREM [CABP5_Y62_T65R] | 0.397 |
